Data taken from US7423021B2, “Peptidic thrombin inhibitors” (NSCI Novel Science International GmbH, priority 2003, dated 2008).
Numbered stars: 1 amine (or outer) side, 2 acyl side, 3 side chain; on linkers, the order of the positions; unused ones are H or OH. Square brackets hold non-standard residues; d marks the D form. Peptide text beside a SMILES is read from it. * marks the point of attachment. Ppd = 4-phenylpiperidine-4-carboxylic acid, O=C(C1(c2ccccc2)CCN([*:1])CC1)[*:2]; Phe(4-NO2) = N[C@@H](Cc1ccc([N+](=O)[O-])cc1)C(=O)O; Tpi = O=C(O)[C@@H]1Cc2c([nH]c3ccccc23)CN1; X1 = N=C(N)NC[C@H]1CC[C@H](C(=O)*)CC1; hArg = N=C(N)NCCCC[C@H](N)C(=O)O; Tic = O=C(O)[C@@H]1Cc2ccccc2CN1; Cha = N[C@@H](CC1CCCCC1)C(=O)O; Cit = NC(=O)NCCC[C@H](N)C(=O)O; dCha = N[C@H](CC1CCCCC1)C(=O)O; Phg = N[C@H](C(=O)O)c1ccccc1; Dcp = dichlorophenylalanine; Nle = CCCC[C@H](N)C(=O)O; Aze = O=C(O)[C@@H]1CCN1; Tea = thienylalanine

Molecular target: thrombin (Homo sapiens, UniProt P00734)
Test: in-vitro inhibition of the amidase activity of thrombin (fluorogenic substrate Tos-Gly-Pro-Arg-AMC)
Assay type: biochemical
Set-up: 10 μl of human thrombin solution
Conditions: not given
Experimental: The values of the inhibiting constants Ki were obtained from assays in which thrombin hydrolyzes the fluorogenic substrate Tos-Gly-Pro-Arg-(7-amino-4-methylcumarin). The assays were carried out in […] of assay buffer (0.05 M tris, 0.1 M NaCl, 0.1% PEG 8000, pH 7.6) with 10 μl of human thrombin solution (10^−5 U/μl in the assay buffer) and 140 μl of a solution of the fluorogenic substrate in an assay buffer at a concentration of 30 μM. Solutions of the test compound (10 μl) were added at various concentrations. The rates of the hydrolysis of the substrate were measured by monitoring the reactions at […] of the release of 7-amino-4-methylcumarin using AMC. The reaction reached an equilibrium state within three minutes, after thrombin, the substrate, and an inhibitor were mixed. The kinetic data of the competing inhibition (Km, Vmax, and Ki) were analyzed by means of the representation according to Hanes (A/V against A at various values of A, where A is the substrate concentration and V the reaction rate).

Ki [nM]	Compound
3	N=C(N)NCCCC[C@H](NC(=O)[C@@H](Cc1ccc(O)cc1)NC(=O)[C@@H]1CCN1C(=O)[C@@H](CC1CCCCC1)NC(=O)[C@H]1CC[C@H](CNC(=N)N)CC1)C(N)=O [Example 31, Trans-4-(guanidinomethyl)cyclohexanecarboxylic acid-D-Cha-L-Aze-D-Try-L-Har amide] (X1-[dCha][Aze][dY][hArg]-NH2)

Same assay, conditions: peptide concentration of 250 nM

inhibition of the amidase activity of the thrombin [%]	Compound
95	N-acetyl-L-Phg-D-Cha-L-Aze-D-Tyr-L-Har amide (Ac-[Phg][dCha][Aze][dY][hArg]-NH2) [Example 26]
74	N-acetyl-L-Tea-D-Cha-L-Aze-D-Tyr-L-Har amide (Ac-[Tea][dCha][Aze][dY][hArg]-NH2) [Example 25]
76	N-acetyl-L-Ppd-D-Cha-L-Aze-D-Tyr-L-Har amide (Ac-[Ppd][dCha][Aze][dY][hArg]-NH2) [Example 24]
90	N-acetyl-L-Cha-D-Cha-L-Aze-D-Tyr-L-Har amide (Ac-[Cha][dCha][Aze][dY][hArg]-NH2) [Example 28]
72	N-acetyl-L-Iq3-D-Cha-L-Aze-D-Tyr-L-Har amide (Ac-[Tic][dCha][Aze][dY][hArg]-NH2) [Example 23]
75	N-acetyl-L-Dcp-D-Cha-L-Aze-D-Tyr-L-Har amide (Ac-[Dcp][dCha][Aze][dY][hArg]-NH2) [Example 21]

Compound	inhibition of the amidase activity of the thrombin [%]
N-acetyl-L-Trp-D-Cha-L-Aze-D-Tyr-L-Har amide (Ac-W[dCha][Aze][dY][hArg]-NH2; SMILES CC(=O)N[C@@H](Cc1c[nH]c2ccccc12)C(=O)N[C@H](CC1CCCCC1)C(=O)N1CC[C@H]1C(=O)N[C@H](Cc1ccc(O)cc1)C(=O)N[C@@H](CCCCNC(=N)N)C(N)=O) [Example 18]	76
N-acetyl-L-Nhm-D-Cha-L-Aze-D-Tyr-L-Har amide (Ac-[Tpi][dCha][Aze][dY][hArg]-NH2; SMILES CC(=O)N1Cc2[nH]c3ccccc3c2C[C@H]1C(=O)N[C@H](CC1CCCCC1)C(=O)N1CC[C@H]1C(=O)N[C@H](Cc1ccc(O)cc1)C(=O)N[C@@H](CCCCNC(=N)N)C(N)=O) [Example 22]	80
N-acetyl-D-Phe-D-Cha-L-Aze-D-Tyr-L-Har amide (Ac-[dF][dCha][Aze][dY][hArg]-NH2; SMILES CC(=O)N[C@H](Cc1ccccc1)C(=O)N[C@H](CC1CCCCC1)C(=O)N1CC[C@H]1C(=O)N[C@H](Cc1ccc(O)cc1)C(=O)N[C@@H](CCCCNC(=N)N)C(N)=O) [Example 20]	77
N-acetyl-L-Pnp-D-Cha-L-Aze-D-Tyr-L-Har amide (Ac-[Phe(4-NO2)][dCha][Aze][dY][hArg]-NH2; SMILES CC(=O)N[C@@H](Cc1ccc([N+](=O)[O-])cc1)C(=O)N[C@H](CC1CCCCC1)C(=O)N1CC[C@H]1C(=O)N[C@H](Cc1ccc(O)cc1)C(=O)N[C@@H](CCCCNC(=N)N)C(N)=O) [Example 29]	72
N-acetyl-L-Ala-D-Cha-L-Aze-D-Tyr-L-Har amide (Ac-A[dCha][Aze][dY][hArg]-NH2; SMILES CC(=O)N[C@@H](C)C(=O)N[C@H](CC1CCCCC1)C(=O)N1CC[C@H]1C(=O)N[C@H](Cc1ccc(O)cc1)C(=O)N[C@@H](CCCCNC(=N)N)C(N)=O) [Example 19]	77

Same assay, conditions: peptide concentration of 1 μM

Compound	inhibition of the amidase activity of the thrombin [%]
N-acetyl-L-Arg-L-Cha-D-Pro-D-Tyr-L-Arg amide (Ac-R[Cha][dP][dY]R-NH2; SMILES CC(=O)N[C@@H](CCCNC(=N)N)C(=O)N[C@@H](CC1CCCCC1)C(=O)N1CCC[C@@H]1C(=O)N[C@H](Cc1ccc(O)cc1)C(=O)N[C@@H](CCCNC(=N)N)C(N)=O) [Example 14]	47
N-acetyl-D-Glu-L-Cha-D-Pro-D-Tyr-L-Arg amide (Ac-[dE][Cha][dP][dY]R-NH2; SMILES CC(=O)N[C@H](CCC(=O)O)C(=O)N[C@@H](CC1CCCCC1)C(=O)N1CCC[C@@H]1C(=O)N[C@H](Cc1ccc(O)cc1)C(=O)N[C@@H](CCCNC(=N)N)C(N)=O) [Example 2]	58
N-acetyl-D-Lys-L-Nle-L-Cha-D-Pro-D-Tyr-L-Arg amide (Ac-[dK][Nle][Cha][dP][dY]R-NH2; SMILES CCCC[C@H](NC(=O)[C@@H](CCCCN)NC(C)=O)C(=O)N[C@@H](CC1CCCCC1)C(=O)N1CCC[C@@H]1C(=O)N[C@H](Cc1ccc(O)cc1)C(=O)N[C@@H](CCCNC(=N)N)C(N)=O) [Example 12]	48
N-acetyl-L-Tyr-L-Cit-L-Cha-D-Pro-D-Tyr-L-Arg amide (Ac-Y[Cit][Cha][dP][dY]R-NH2; SMILES CC(=O)N[C@@H](Cc1ccc(O)cc1)C(=O)N[C@@H](CCCNC(N)=O)C(=O)N[C@@H](CC1CCCCC1)C(=O)N1CCC[C@@H]1C(=O)N[C@H](Cc1ccc(O)cc1)C(=O)N[C@@H](CCCNC(=N)N)C(N)=O) [Example 6]	55
N-acetyl-L-Trp-L-Cha-D-Pro-D-Tyr-L-Arg amide (Ac-W[Cha][dP][dY]R-NH2; SMILES CC(=O)N[C@@H](Cc1c[nH]c2ccccc12)C(=O)N[C@@H](CC1CCCCC1)C(=O)N1CCC[C@@H]1C(=O)N[C@H](Cc1ccc(O)cc1)C(=O)N[C@@H](CCCNC(=N)N)C(N)=O) [Example 9]	63
N-acetyl-L-Ser-L-Ala-L-Cha-D-Pro-D-Tyr-L-Arg amide (Ac-SA[Cha][dP][dY]R-NH2; SMILES CC(=O)N[C@@H](CO)C(=O)N[C@@H](C)C(=O)N[C@@H](CC1CCCCC1)C(=O)N1CCC[C@@H]1C(=O)N[C@H](Cc1ccc(O)cc1)C(=O)N[C@@H](CCCNC(=N)N)C(N)=O) [Example 10]	47
N-acetyl-L-Tyr-D-Pro-L-Cha-D-Pro-D-Tyr-L-Arg amide (Ac-Y[dP][Cha][dP][dY]R-NH2; SMILES CC(=O)N[C@@H](Cc1ccc(O)cc1)C(=O)N1CCC[C@@H]1C(=O)N[C@@H](CC1CCCCC1)C(=O)N1CCC[C@@H]1C(=O)N[C@H](Cc1ccc(O)cc1)C(=O)N[C@@H](CCCNC(=N)N)C(N)=O) [Example 15]	44
N-acetyl-L-Ile-L-Arg-L-Cha-D-Pro-D-Tyr-L-Arg amide (Ac-IR[Cha][dP][dY]R-NH2; SMILES CC[C@H](C)[C@H](NC(C)=O)C(=O)N[C@@H](CCCNC(=N)N)C(=O)N[C@@H](CC1CCCCC1)C(=O)N1CCC[C@@H]1C(=O)N[C@H](Cc1ccc(O)cc1)C(=O)N[C@@H](CCCNC(=N)N)C(N)=O) [Example 5]	61
N-acetyl-L-Ser-L-Ser-L-Cha-D-Pro-D-Tyr-L-Arg amide (Ac-SS[Cha][dP][dY]R-NH2; SMILES CC(=O)N[C@@H](CO)C(=O)N[C@@H](CO)C(=O)N[C@@H](CC1CCCCC1)C(=O)N1CCC[C@@H]1C(=O)N[C@H](Cc1ccc(O)cc1)C(=O)N[C@@H](CCCNC(=N)N)C(N)=O) [Example 7]	40
N-acetyl-L-Ala-D-Cha-L-Aze-D-Tyr-L-Arg amide (Ac-A[dCha][Aze][dY]R-NH2; SMILES CC(=O)N[C@@H](C)C(=O)N[C@H](CC1CCCCC1)C(=O)N1CC[C@H]1C(=O)N[C@H](Cc1ccc(O)cc1)C(=O)N[C@@H](CCCNC(=N)N)C(N)=O) [Example 16]	63
N-acetyl-D-Gln-D-His-L-Cha-D-Pro-D-Tyr-L-Arg amide (Ac-[dQ][dH][Cha][dP][dY]R-NH2; SMILES CC(=O)N[C@H](CCC(N)=O)C(=O)N[C@H](Cc1c[nH]cn1)C(=O)N[C@@H](CC1CCCCC1)C(=O)N1CCC[C@@H]1C(=O)N[C@H](Cc1ccc(O)cc1)C(=O)N[C@@H](CCCNC(=N)N)C(N)=O) [Example 1]	59
N-acetyl-L-Ala-L-Cha-D-Pro-D-Tyr-L-Arg amide (Ac-A[Cha][dP][dY]R-NH2; SMILES CC(=O)N[C@@H](C)C(=O)N[C@@H](CC1CCCCC1)C(=O)N1CCC[C@@H]1C(=O)N[C@H](Cc1ccc(O)cc1)C(=O)N[C@@H](CCCNC(=N)N)C(N)=O) [Example 4]	44
N-acetyl-L-Ala-D-Cha-L-Pro-D-Tyr-L-Har amide (Ac-A[dCha]P[dY][hArg]-NH2; SMILES CC(=O)N[C@@H](C)C(=O)N[C@H](CC1CCCCC1)C(=O)N1CCC[C@H]1C(=O)N[C@H](Cc1ccc(O)cc1)C(=O)N[C@@H](CCCCNC(=N)N)C(N)=O) [Example 17]	56
N-acetyl-L-Ser-L-Arg-L-Cha-D-Pro-D-Tyr-L-Arg amide (Ac-SR[Cha][dP][dY]R-NH2; SMILES CC(=O)N[C@@H](CO)C(=O)N[C@@H](CCCNC(=N)N)C(=O)N[C@@H](CC1CCCCC1)C(=O)N1CCC[C@@H]1C(=O)N[C@H](Cc1ccc(O)cc1)C(=O)N[C@@H](CCCNC(=N)N)C(N)=O) [Example 11]	51
N-acetyl-D-Val-L-Cha-D-Pro-D-Tyr-L-Arg amide (Ac-[dV][Cha][dP][dY]R-NH2; SMILES CC(=O)N[C@@H](C(=O)N[C@@H](CC1CCCCC1)C(=O)N1CCC[C@@H]1C(=O)N[C@H](Cc1ccc(O)cc1)C(=O)N[C@@H](CCCNC(=N)N)C(N)=O)C(C)C) [Example 8]	45
N-acetyl-D-Tyr-L-Cha-D-Pro-D-Tyr-L-Arg amide (Ac-[dY][Cha][dP][dY]R-NH2; SMILES CC(=O)N[C@H](Cc1ccc(O)cc1)C(=O)N[C@@H](CC1CCCCC1)C(=O)N1CCC[C@@H]1C(=O)N[C@H](Cc1ccc(O)cc1)C(=O)N[C@@H](CCCNC(=N)N)C(N)=O) [Example 13]	47
